# From the nanobody polyreactivity screen of Harvey et al. (2022)
# Test: yeast display, Sf9 membrane polyspecificity reagent, FACS + sequencing; frameworks hold sequencing errors
# Procedure, shortened: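 Galactose-induced (36–48 hours) yeast carrying a synthetic nanobody display library were exposed to 10% biotinylated, detergent-solubilized Sf9 membrane reagent at 4 °C for 1 hour. FACS followed streptavidin microbead enrichment, using low and high (top ~1%) gates for expression (anti-HA) and reagent binding (streptavidin). Colony PCR, MiSeq 2 × 250 sequencing and CDR-length filtering followed. Labels for polyreactivity reflect the gate of origin.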
row,Sequence,polyreactivity (PSR sort gate)
1,QVQLVESGGGLVQAGGSLRLSCAASGITFLVYVMGWYRQAPGKERELVAAISSGGSTYYADSVKGRFTISRDNAKNTVYLQMNSLKPEDTAVYYCSADTVGTNVVSPELDYWGQGTQVTVSS,low polyreactivity
2,QVHLVDSGGGLVQAGASLRLSCSASGSIFYSYAMGWYRPAPGKEWELVAAIRRGGSTNYADSVKGRFTISRDNAKNTVYLQMNSLKPEDTAVYYCAAGRFTYAAQRYEYWGQGTQVTVSS,high polyreactivity
3,QVQLVESGGGLVQAGGSLRLSCAASGRIFYYNAMGWYRQAPGKERELVAAITSVGSTNYADSVKGSFTISRDNAKNTVYLQMNSLKPEDTAVYYCARASAWYVTLVGKYTKYDYWGQGTQVTVSS,low polyreactivity
4,QVQLVESGGGLVQAGGSLRLSCAASGSIFEGYVMGWYRQAPGKERELVAGISRGSRTNYADSVKGRFTISRDNAKNTVYLQMNSLKPEDTAVYYCAAEYWGVYRGFVSSFDYWGQGTQVTVSS,high polyreactivity
5,QVQLVKSGGGLVQAGGSLRLSCAASGFIIPEYTMGWYRPAPGKERELVAAISGSGGSTYYADSVKGRFTISRDNAKNTVYLQMNSLKPEDTAVYYCAASYAVSRYLQTYAHAHGYWGQGTQVTVSS,low polyreactivity
6,QVQLVESGGGLVQAGGSLRLSCAASGSTFAYNAMGWYRQAPGKERELVAAISFSGGSTYYADSVKGRFTLSRDNAKNTVYLQMNSLKQEDTAVYYCAKRGYPSTNGRQEGYWGQGTQVTVSS,low polyreactivity
7,QVQLVESGGGLVQAGGSLRLSCAASGRTFFSYTMGWYRPAPGKERELFAAIYDSDGRTYYADSVKVRFTISRDNAKNTVYLQMYSLKPEDTAVYYCAAVPDKYWSRVRRYLFEHNYWGQGTKVTVSS,low polyreactivity
8,QVQLVESGGGLVQAGGSLRLSCAASGRTFYPYAMGWYRQAPGKERELVARITSGGSTYADSVKGRFTISRDNAKNTVYLQMNSLKPEDTAVYYCNTDGYLLSRYPYSVQLYEYWGQGTQVTVSS,high polyreactivity
9,QVQLVESGGGLVQAGGSLRLSCAASGRIFKKNAMGWYRQAPGKERELVAAISYRGGSTYYADSVKGRFTISRDNAKNTVYLQMNSLKPEDTAVYYCNVGSRGGWDASDYDYWGQGTQVTVSS,high polyreactivity
10,QVQLVESGGGLVQAGGSLRLSCAASGSIFRPNAMGWNRQAPGKERELVAAINTSDDSTYYADSVKGRFTISRDNAKNTVYLQMNSLKPEDSAVYYCAADPRTYWTHSYYWGQGTQVTVSS,low polyreactivity
11,QDQLVVSGGGLVHAGGSLRLSCAASGRIFHAYGMGWYRQAPGQERELVAAITWRGVSTYYADSVKGRFTISRDNAKNTVYLQMNSLKPEDTAVYYCAARVTPGRNGGGYWGQGTQVTVSS,high polyreactivity
12,QVQLVESGGGLVQAAGSLRLSCAASGSIFGVNVMGWYRQAPGKERELVAAITTSGGSTYYADSVKGRFTISRDNAKNTVYLQMNSLKPEDTAVYYCAAEVYYPIFLTFYYRGQGTQVTVSS,high polyreactivity
13,QVQQHESGDGLVQAVGSLRLTCAASGYISGNYYMGWYRQATGKERELVAGIDAFGSSTNYADCVKGRFTISRDNAKNTVYLQMNSLKPEDTAVYYCAARPDGDRLFYYWGQGTQVTVSS,low polyreactivity
14,QVQLVESGGGLVQAGGSLRLSCASSGSTFPSNAMGWYRQAPGKERELVAAISRSGGSTYYADSVKGRFTISRDNAKNTVYLQMNSLKPEDTAVYYCAVQVRPNYGGTRIHRGGYDYWGQGTQVTVSS,low polyreactivity
15,QVQLVESGGGLVQAGGSLRLSCAASGLTFTTYAMGWSRQAPGKERELVAAISRRGSRTYYADSVKGRFTISRDNAKNTVYLQMNSLKPEDTAVYYCNALTGSFKTYSFDYWGQGTQVTVSS,high polyreactivity
16,QVQLVESGGGLVQAGGSLRLSCAASGRTFSPYAMGWYRQAPGKERELVAAITSRGASTYYADSVKGRFTISRDNAKNTVYLQMNSLKPEDTAVYYCNSGRTYRRLGDYWGQGTQVTVSS,high polyreactivity
17,QVQLVESGGGLVQAGGSLRLSCAASGRIFYPYAMGWYRQAPGKERELVAAIRWGGGSTYADSVKGRFTISRDNAKNTVYLQMNSLKPEDTAVYYCAAKSYPYYGYPGAYDYWGQGTQVTVSS,low polyreactivity
18,QVQLQESGGGLVQAGGSLRLSCAASGTISQEDWMGLYRQAPGKEREFVAAIGLGSNTNYADSLKGRFTISRDNAKNTVYLQMNSLKPEDTAVYYCAVSVWQYSDHVYRGQGTQVTVSS,low polyreactivity
19,QVQLVESGGGLVQAGGSLRLSCAASGFIFRYYVMGWYRQAPGKERELVAAITGSGGSTYYADSVKGRFTISRDNAKNTVYLQMNSLKPEDTAVYYCAARVWPIVQNYYWGQGTQVTVSS,high polyreactivity
20,QVQLVESGGGLVQAGGSLRLSCAASGSIFHKYTMGWYRQAPGKERELVAAITRSGGSTYYADSVNGRFTISRDNAKNTVYLQMNSLKAEDTAVYYCNKRYIPWAYDYWGQGTKVTVSS,high polyreactivity
21,QFQLVESGGGLFQAGGILRLSCAASGRNFLYNAMGWDRQAPGKERELVAAISSRGARTYYADSVKGRFTISRDNAKNTVYFQMNSLKPEDTAVYYCATDSYRYDGIQYLYEYYYWGQGTQVTVSS,high polyreactivity
22,QVQLVESGGGLVQAGGSLRLSCAASGFTFYKYAMGWYRQAPGKERELVATISWSGARTYYADSVKGRFTISRDNAKNTVYLQMNSLKPEDTAVYYCNARRAYRWKPYTGSAGMDYWGQGTQVTVSS,high polyreactivity

row,Sequence,polyreactivity (PSR sort gate)
1,QVQLVESGGGLVQAGGSLRLSCAASGFTFYSYTMGWYRQAPGKERELVAAISGRSVRTYYADSVKGRFTISRDNAKNTVYLQMNSLKPEDTAVYYCARAYYWRTSWYNYWGQGTQVTVSS,high polyreactivity
2,QVQLVESGGGLVQAGGSLRLSCAASGRIFQYYAMGWYRQAPGKERELVAAISSRGGSTSYADSVKGRFTISRDKAKNTVYLQMNSLKPEDTAVYYCNAKSRISYWYDYWGQGTQVTVSS,high polyreactivity
3,QVQLVESGGGLVQAGGSLRLSCAASGITFAYNAMGWYRQAPGKERELVARITSGGRTYYADSVKGRFTISRDNAKNTVYLQMKSLKPEDTAVYYCNAKEGSRYRKYDYWGPGTQVTVSS,low polyreactivity
4,QVQLVESGGGLVQAGGSLRLSCAASGITFSPYAMGWYRQAPGKERELVAAISSRGGSTYYADSVKGRFTISRDNAKNTVYLQMNSLKPEDTAVYYCNALTFVRYLFHYTYWGQGTQVTVSS,high polyreactivity
5,QVQLVESGGGLVQAGGSLRLSCAASGNTIIRYAIAWYRQAPGKERELVAAISYSGGRTYYADSVKGRFTISRDNANNTVYLQMNSLKPEDTAVYYCNAASRYGGDYWGQGTQVTVSS,high polyreactivity
6,QVQLVESGGGLVQAGGSLRLSCAASGSIFKRNAKGWYRQAPGKERGLVAGNSQSGSSTRYADSVKGRFTISRDNAKNTVYLQMNSLKPEDTAVYYCAAELSLAYTYDYWGQGTQVTVSS,high polyreactivity
7,QVQLVESGGGLVQAGGSLRLSCAASGRIFGDYGMGWYRQAPGKERELVAAITDRGGTTYYADSVKGRFTISRDNAKNTVYLQMNSLKPEDTAVYYCNARQSDIFDYDYWGQGTQVTVSS,low polyreactivity
8,QVQLVDSGGGLVQAGGSLRLSCAASGSTFYYNAMGWYRQAPGKERELVARISRSGGSTYADSVKGRFTISRDNAKNTFYLQMNSLKPEDTAVYYCNADAYGTPEFTSYAVCYDYWGQGTQVTVSS,low polyreactivity
9,QVQLVESGGGLVQAGGSLRLSCAASGRTFRGNAMGWYRQAPGKERELVATINSGASTNYADSVKGRFTISRDNAKNPVYLQMNSLNPEDTAVYYCAAVKYFRWKYNYWGQGTQVTVSS,high polyreactivity
10,QVQLVESGGGLVQAGGSLRLSCAASGRTFYAYAMGWYRQAPGKERELVAAISWRGGDTYYADSVKGRFTISRDNAKNTVELQMNSLKPEDTAVYYCAKDLSRQSGDGEYDYWGQGTQVTVSS,low polyreactivity
11,QVQLVESGGGLVQAGGSLRLSCAASGRTFDGYSMGWYRQAPGKEREFVASINGGGSTNYADSVNGRFTISRDNAKNTVYLQMNSLKPEDTAVYYCAAESKGTWLYLYNSPHYYWGQGTQVTVSS,low polyreactivity
12,QVQLVESGGGLVQAGGSLRLSCAASGRTFAKYGMGWYIQAPGKERELVAAIDYSGGSTYYADSVKGRFTISRDNAKNTVYLQMNSLKPEDTAVYYCAADYFWLYYSEYGYWGQGTQVTVSS,low polyreactivity
13,QVQLVESGGGLVQAGGSLRLSCAASGSTISRYAMGWYRQAPGKEREFVAAISWRGGSTYYADSVKGRFTISRDNAKNTVYLQLNSLKPEDTAVYYCNADYRYARKGHYGKFGYWGQGTQVNVSS,high polyreactivity
14,QVQLVESGGGLVQAGGSLRLSCAASGSIFGLYAMGWYRQAPGKERELVAAINQSGGSTSYADSVKGRFTISRDNAKNTVYLQMNSLKPEDTAVYYCNRVRLNSEGFDYWGQGTQVTVSS,low polyreactivity
15,QVQLVESGGGLVQAGRTLRLSCAASGNIFDLNAMGWYRPAPGKERELVAAIDRGGGSTYYADSVKGRFTISRDNATNTVYLHMNSLKTEDTAVYYCSAVDQESNPAGGYWGQGSQVTVSS,low polyreactivity
16,QVQLVQSGGGLVQAGGSLRLSCAASGYTIYLKAMGWNRQAPGKERELVAAITGSGDDTYYADSVKGRFTISRDNAKNTVYLQMKIMIPEDTAVYYCAARPYYTSSYKDYEYWGQGTQVTVSS,high polyreactivity
17,QVQLVDSGGGLVQAGGSLRLSCAASGSIFVRYTMGWYRQAAGKERELVAGIRTNGSSTYYADSVKGRFTISRDNAKNTVYLQMNSLKPEDTAVYYCAARLYRYFRQYDYWGQGTQVTVSS,low polyreactivity
18,QVQLVESGGGLVQAGGSLRLSCAASGRTFPTNAMGWYIQAPGKERELVAVISRNSGRTYYADSVKGRFTISRDNAMNTVYFQMNSLKPEDTAVYYCAADKYTRAYYYWGQGTQVTVSS,high polyreactivity
19,QVQLVESGTGLVQAGGSLRLSCADSGITFVFYSMGSYRQAPGKESELVATISYRGTSTYYADSVKGLFTISRDNAKNSVSLQMNSLKPEDTAVYYCAADTFIYYKTGYGYWGQGTQVTVSS,low polyreactivity
20,QVQLGESGLGLVQAGGSLRLSCAAYGSIFYIYAMGWYRQAPGKERELVAAISRSGGRTYYADSVKGRFTISRDNAKNTVYLQMNSLKPEYTAVYYCAARDHYSNGGMNYWGQGTQVTVSS,high polyreactivity
21,QVQLVESGGGLVQAGGSLRLSCSASGFTSRKNAMGWYRQAPGKERELVAAITQSSGRTYYADSVKGRFTISRDNAKNTVYLQMNSLKPEDTAVYYCAARRGGEDDYWGQGTQVTVSS,low polyreactivity
